Results on 41 sequences are retold here after the nanobody polyreactivity screen of Harvey et al. (2022).

This series in a line: yeast display, Sf9 membrane polyspecificity reagent, FACS + sequencing; frameworks hold sequencing errors. The method, boiled down:
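A synthetic nanobody library was expressed on Saccharomyces cerevisiae BJ5465 by galactose induction for 36–48 hours. The library was stained for 1 hour at 4 °C with 10% biotinylated, detergent-solubilized Sf9 membrane reagent and enriched with streptavidin microbeads before FACS. Low and high (top ~1%) gates were set on anti-HA fluorescence for expression and streptavidin fluorescence for reagent binding, and each polyreactivity label reflects the gate of origin.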
With “QVQLVESGGGLVQAGGSLRLSCAASGSTFAFNAMGWYRQAPGKEREFVARITWTYGSTYYADSVKGRFTISRDNAKNTVYLQMNSLKPEDTAVYYCARDPTEQAIARWTYDYWGQGTQVTVSS”, the “polyreactivity (PSR sort gate)” value is reported as “low polyreactivity”.
In the case of “QVQLVESGGGLVQAGGSLRLSCAASGSTFAFNAMGWYRQAPGKERELVAGITWSSGSTYYADSVKGRFTISRDNAKNTVYLQMNSLKPEDTAVYYCAVSGTRTIWGQGTQVTVSS”, the “polyreactivity (PSR sort gate)” value is listed as “high polyreactivity”.
For the sequence “QVQLVESGGGLVQAGGSLRLSCAASGSTFAFNTKGWYRQAPGKERELVAGISSNGGRTYYADSVKGRFTISRDNAKNTVYLQMNSLKPEDTAVYYCNALRRYVSVRPTKSDDWGQGTQVTVSS”, the “polyreactivity (PSR sort gate)” value is “high polyreactivity”.
Then “QVQLVESGGGLVQAGGSLRLSCAASGSTFAFYAMGWYRQAPGKERELVAAISRSGGRTYYADSVKGRFTISRDNAKNTVYLQMNSLKPEDTAVYYFAAPSSITTGPHREYDYWGQGTQVTVSS”, with “high polyreactivity”.
For the sequence “QVQLVESGGGLVQAGGSLRLSCAASGSTFAFYAMGWYRQAPGKERELVAAISSSGARTYYADSVKGRFTLSRDNAKNTVYLQMNSLKPEDTAVYYCAAAFYRLYITSYYYWGQGTQVTVSS”, the “polyreactivity (PSR sort gate)” value is “high polyreactivity”.
Take “QVQLVESGGGLVQAGGSLRLSCAASGSTFAGNAMGWYRQAPGKERELVAAITSGTGTHYADSVKGRFTISRDNAKNSVYLQMNSLKPEDTAVYYCAAEVWTWAGIWGYEYWGQGTQVTVSS”: the “polyreactivity (PSR sort gate)” value is recorded as “low polyreactivity”.
Consider “QVQLVESGGGLVQAGGSLRLSCAASGSTFAGNGMGWYRQAPGKERELVAGIDVTGGSSYYADSVKGRFTISRDNAKNTVYLQMNSLKPEDTAVYYCNTVWYRGGIDYYWGQGTQVTVSS”, for which the “polyreactivity (PSR sort gate)” value was “low polyreactivity”.
Take “QVQLVESGGGLVQAGGSLRLSCAASGSTFAGYTLGWYRQAPGKERELVAAITSRGGRTYYADSVKGRFTISRDHAKNTVYLQMNSLKPEDTAVYYCAAVSRYYAALMYYWGQGTQVTVSS”: the “polyreactivity (PSR sort gate)” value is listed as “high polyreactivity”.
On to “QVQLVESGGGLVQAGGSLRLSCAASGSTFAINAMGWYRQAPGKERELVAAISSSGSTNYADSVKGRFTISRDNAKNTVYLQMNSLIPEDTAVYYCAADRVWGTPQAYVPSQFDYWGQGTQVTVSS”, for which the “polyreactivity (PSR sort gate)” value was “low polyreactivity”.
Then “QVQLVESGGGLVQAGGSLRLSCAASGSTFAINAMGWYRQAPGKERELVAAITSGGGTNYADSVKGRFTISRDNAKNTVFLQMISLKPEDTAVYYCYGRVYWYYPMDYWGQGTQVTVSS”, with “low polyreactivity”; and “QVQLVESGGGLVQAGGSLRLSCAASGSTFAKNAMGWYRQAPGKERELVAAITASGGSTYYADSVKGRFTISRDNAKNTVSLQMNSLKPEDTAVYYCAKSSYLTRGSRYDYWGQGTQVTVSS”, with “low polyreactivity”; and “QVQLVESGGGLVQAGGSLRLSCAASGSTFAKYAMGWYRQAPGKERELVAAIRSGGSTNYADSVKGRFTISRDNAKITVYLQMYSLKPEDTAVYYCAAKRDVSRPVYFRNDYWGQGTQVTVSS”, with “low polyreactivity”.
Then “QVQLVESGGGLVQAGGSLRLSCAASGSTFAKYAMGWYRQAPGKERELVASIRLSGGSTYYADSVKGRFTISRDNAKNPDYLQMNSLNPEDTAVYYFNKQFATFYYGFDYYYWGQGSQVTVSS”, with “low polyreactivity”.
As to “QVQLVESGGGLVQAGGSLRLSCAASGSTFALYTMGWYRQAPGKERELVAAIRYGGGSTYYADSVKGRFTISRDNAKNTVYLQMNSLKPEDTAVYYCARDLYNLYSGSYYWGQGTQVTVSS”, the “polyreactivity (PSR sort gate)” value is given as “low polyreactivity”.
Consider “QVQLVESGGGLVQAGGSLRLSCAASGSTFAPNALGWSRQAPGKERELVAAIRTNTVSTYYADSVKGRFTISRDNAKNTVYLQMNSLKPEDTEVYYCAAVFSGFYYAYDYWGQGTQVTVSS”, for which the “polyreactivity (PSR sort gate)” value is reported as “high polyreactivity”.
Consider “QVQLVESGGGLVQAGGSLRLSCAASGSTFAPNAMGWYRQAPGKEREFVASITWRGGSTYYADSVKGRFTISRDNAKNTVYLQMNSLKPEDTAVYYCANLKRGFYRLFGFRYDYWGQGTQVTVSS”, for which the “polyreactivity (PSR sort gate)” value is “low polyreactivity”.
Consider “QVQLVESGGGLVQAGGSLRLSCAASGSTFAPNAMGWYRQAPGKERELVAAIRFDTGSTYYADSVKGRFTISRDNAKNTVYLQMNSLKPEDTAVYYCAAYNHYLSESDYWGQGTQVTVSS”, for which the “polyreactivity (PSR sort gate)” value was “low polyreactivity”.
As to “QVQLVESGGGLVQAGGSLRLSCAASGSTFAPYAMGWYRQAPGKERELVAAIRSSGGSTYYADSVKGRFTISRDNAKNTVYLQMNSLKPEDTAVYYCADDYYTSADYVDYYYWGQGTQVTVSS”, the “polyreactivity (PSR sort gate)” value was “low polyreactivity”.
Take “QVQLVESGGGLVQAGGSLRLSCAASGSTFAQNGLGWYRQAPGKERELVAAITSSGSTNYADSVKGRFTISRDNAKNTVYLQMNSLKPEDTAVYYCAKDVLAPYTRHDYWGQGTQVTVSS”: the “polyreactivity (PSR sort gate)” value is given as “low polyreactivity”.
Then “QVQLVESGGGLVQAGGSLRLSCAASGSTFASYAMGWYRQAPGKEREFVAAITRSGTSTYYADSVQGRFTISRDNAKNTVYLQMNSLKPEDTAVYYCNATRRTVGFGYWGQGTQVPVSS”, with “high polyreactivity”; and “QVQLVESGGGLVQAGGSLRLSCAASGSTFATNTMGWYRQAPGKERELVARITSSDGSTTYADSVKGRFTISRDNAKNTDYLQMNSLKPEDTAVYYCAAAYGRRWGYDYWGQGTQVTVSS”, with “low polyreactivity”.
Turning to “QVQLVESGGGLVQAGGSLRLSCAASGSTFATYAMVWYRQAPGKERELVAAITSGGSTYYADSVKGRFTISRDNAKNTVYLQMNSLKPEDTAVYYCAARSYGWRRATYYKREEYWGQGTQVTVSS”, the “polyreactivity (PSR sort gate)” value is reported as “high polyreactivity”.
As for “QVQLVESGGGLVQAGGSLRLSCAASGSTFATYTMGWYRQAPGKERELVAAISVSGSRTYYADSVKGRFTISRDNAKNTVYLQMNSLKPEDTAVYYCNTLLRPRWSYDYWGQGTQVTVSS”, the “polyreactivity (PSR sort gate)” value is given as “high polyreactivity”.
On to “QVQLVESGGGLVQAGGSLRLSCAASGSTFAVNAMGWYRQAPGKERELVAAISDSDGSTFYADSVKGRFTISRDNAKNTVYLQMNSLKPEDTAVYYCAATVYRVFRYSYLYYYWGQGTQVTVSS”, for which the “polyreactivity (PSR sort gate)” value was “low polyreactivity”.
On to “QVQLVESGGGLVQAGGSLRLSCAASGSTFAVNAMGWYRQAPGKERELVAVITSSGGRTYADSVKGRFTISRDNAKNTVYLQMNSLKPEDTAVYYCAAVQGKVRGGYYWGQGTQVTVSS”, for which the “polyreactivity (PSR sort gate)” value was “high polyreactivity”.
Then “QVQLVESGGGLVQAGGSLRLSCAASGSTFAVYAMGWYRQAPGKERELVAAITRSGGDTYYADSVKGRFTISRDNAKNTVYLQMNSLKPEDTAVYYCAAAPRYGEEYWGQGTQVTVSS”, with “low polyreactivity”; and “QVQLVESGGGLVQAGGSLRLSCAASGSTFAVYAMGWYRQAPGKERELVAAITWSGGSTYYADSVKGRFTISRDNAKNTVYLQMNSLKPEDTAVYYCAATLIYHYWQLFIISTMGYWGQGTQVTVSS”, with “low polyreactivity”; and “QVQLVESGGGLVQAGGSLRLSCAASGSTFAWYAMGWYRQAPGKERELVAAISRTGRTYYADSVKGRFTISRDNAKNSVYLQMNSLKPEDTAVYYCAAKSIYDGFPYYLFDYWGQGTQVTVSS”, with “high polyreactivity”.
To “QVQLVESGGGLVQAGGSLRLSCAASGSTFAYNAMGWYRQAPGKERELVAAISFSGGSTYYADSVKGRFTLSRDNAKNTVYLQMNSLKQEDTAVYYCAKRGYPSTNGRQEGYWGQGTQVTVSS” belongs “low polyreactivity”; to “QVQLVESGGGLVQAGGSLRLSCAASGSTFAYNAMGWYRQAPGKERELVAAISYGGDDTYYADSVKGRFTISRDNAKNTVYLQMNSLKPEDTAVYYCNARSRTYRSALGNLYHYDYWGQGTQVTVSS”, “high polyreactivity”.
Then “QVQLVESGGGLVQAGGSLRLSCAASGSTFAYNDMGWYRQAPGKERELVADIRSGGNTNYADSVKGRFTISRDNAKNTVYLQMNSLKPEDTAVYYCATDGYRIDVYHPDYRYDYWGQCTQVTVSS”, with “low polyreactivity”.
As for “QVQLVESGGGLVQAGGSLRLSCAASGSTFAYNDMGWYRQAPGKETELVADIRSGGNTNYADSVKGRFTISRDNAKNTVYLQMNSLKPEDTAVYYCATDGYRFDVYHPDYRYDYWGQGTQVTVSS”, the “polyreactivity (PSR sort gate)” value is reported as “low polyreactivity”.
Consider “QVQLVESGGGLVQAGGSLRLSCAASGSTFAYNTMGWYRQAPGKERELVAAISQRGGSTYADTVKGRFTISRDNAKNTVYLQMNSLKPEENAVYYWAADGYTYKFDYWGQGTQVTVSS”, for which the “polyreactivity (PSR sort gate)” value was “low polyreactivity”.
Regarding “QVQLVESGGGLVQAGGSLRLSCAASGSTFAYYAMGRYRQAPGKERELVAAISTIAGRTYYADSVKGRFTISRDTAKNSVSLQMNSLNPEDTAFYYCNAYWWFFGGYDYWGQGTQVTVSS”, the “polyreactivity (PSR sort gate)” value is “high polyreactivity”.
For “QVQLVESGGGLVQAGGSLRLSCAASGSTFAYYAMGWYRKAPGKERELVAAISSGGSTYYADSVKGRFTISRDNAKNTVYLQMNSLKPEDTAVYYCNKLWVGKFKRYEFGYWGQGTQVTVSS”, the “polyreactivity (PSR sort gate)” value is reported as “low polyreactivity”.
As for “QVQLVESGGGLVQAGGSLRLSCAASGSTFAYYAMGWYRQAPGKEREFVAAISTRGGSTYYADSVKGRFTISRDNAKNTLYLQMNSLKPEDTAVYYCAAGYFNYSWRIRFDYWGQGTQVTVSS”, the “polyreactivity (PSR sort gate)” value is reported as “high polyreactivity”.
As for “QVQLVESGGGLVQAGGSLRLSCAASGSTFAYYAMGWYRQAPGKERELVAAINYRATRTYYADSVKGRFTISRDNAKNTVYLQMNSLKPEDTAVYYCAAVSPNTAYDYWGQGTQVTVSS”, the “polyreactivity (PSR sort gate)” value is given as “high polyreactivity”.
In the case of “QVQLVESGGGLVQAGGSLRLSCAASGSTFAYYAMGWYRQAPGKERELVAAISWRGGSTYYADSVKGRFTISRDNAKNTVYLHMNSLKPEDTAVYYCATLSAWKASSYDYWGQGTQVTVSS”, the “polyreactivity (PSR sort gate)” value is recorded as “high polyreactivity”.
For “QVQLVESGGGLVQAGGSLRLSCAASGSTFAYYAMGWYRQAPGKERELVAAISWSGGSTYYADSVKGRFTISRDNAKNTVYLQMNSLKPEDTAVYYCNKRNVLDYDYWGQGTQVTVSS”, the “polyreactivity (PSR sort gate)” value was “low polyreactivity”.
Consider “QVQLVESGGGLVQAGGSLRLSCAASGSTFAYYAMGWYRQAPGKESELVAAISSGGSTYYADSVKGRFTISRDNAKNTVYLEMFCLKGDDTAVYYCNKLWVGKFKRYEFGYWGQGTQVTVSS”, for which the “polyreactivity (PSR sort gate)” value was “low polyreactivity”.
With “QVQLVESGGGLVQAGGSLRLSCAASGSTFAYYSMGWYRQAPGKERELVAAISRTGGSTYYADSVKGRFTISRDNAKNTVYLQMNSLKPEDTAVYYCNARAPVGTFDYDYWGQGTQVTVSS”, the “polyreactivity (PSR sort gate)” value was “low polyreactivity”.
